Laboratory results as given in the supplement of paper PMC9732359.
± gives the uncertainty stated by the source.

Test: protein stability index of a GFP-peptide fusion (yeast GPS) (PSI 1-4); higher = more stable; sorted into four equal gates, so the index is relative within each strain
Outline: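 Tiled 17-residue peptides from yeast proteins were fused downstream of GFP on a plasmid that also expresses Cherry, and the pooled library was carried in yeast. Mid-log cultures grown in leucine-free medium were sorted into four equal gates by GFP/Cherry fluorescence ratio. Plasmids from each gate were PCR-amplified and Illumina-sequenced, and reads were assigned to strains by barcodes. Each peptide's protein stability index is the sum, over gates, of the gate's read frequency multiplied by its gate number.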

| Sequence | protein stability index (doa10∆) | protein stability index (pdr5∆) | protein stability index (san1∆) | protein stability index (ubr1∆) |
| --- | --- | --- | --- | --- |
| IQQVVEYADNDEDKFKK [PRP28] | 3.06 ± 0.072 | 3.03 ± 0.093 | 3.24 ± 0.084 | 3.17 ± 0.047 |
| DLGIKYDPSIGIFGMDF [RPL11A] | 2.85 ± 0.04 | 3.06 ± 0.041 | 2.96 ± 0.039 | 3 ± 0.037 |
| DMAILERYYELAFDKLN [ARP7] | 1.3 ± 0.09 | 1.6 ± 0.1 | 1.31 ± 0.16 | 1.54 ± 0.18 |
| SLSEFARRRQPTDQNNQ [SNF2] | 2.89 ± 0.11 | 3.12 ± 0.13 | 3.1 ± 0.067 | 2.87 ± 0.1 |
| SYRLLPQINILQPIKGE [RPC40] | 2.04 ± 0.094 | 2.1 ± 0.087 | 1.74 ± 0.067 | 2.03 ± 0.064 |
| LQIHSRKMTTDDDINWQ [RPT5] | 3.09 ± 0.14 | 3.12 ± 0.093 | 2.93 ± 0.12 | 3.06 ± 0.063 |
| YTETDPAKVAEEGINKF [SRP54] | 3.05 ± 0.1 | 3.3 ± 0.097 | 2.9 ± 0.089 | 3.04 ± 0.095 |
| DGDASKPAFSFGAKSDE [YJL041W/NSP1] | 3.32 ± 0.064 | 3.26 ± 0.053 | 3.15 ± 0.037 | 3.43 ± 0.044 |
| VTSSFFYRGNYTDFENT [FAS1] | 2.05 ± 0.058 | 2.4 ± 0.049 | 2.43 ± 0.079 | 2.57 ± 0.056 |
| REISNFSKGDADVLVDR [SRP72] | 3.22 ± 0.098 | 3.19 ± 0.096 | 3.03 ± 0.097 | 3.06 ± 0.079 |
| QTKRWPTMYTRLCICSG [SIN4] | 1.4 ± 0.039 | 1.48 ± 0.038 | 1.51 ± 0.078 | 1.58 ± 0.03 |
| SSKAATPDTKNFFHAKK [SNF12] | 3.12 ± 0.058 | 2.96 ± 0.051 | 2.99 ± 0.048 | 2.93 ± 0.047 |
| NGTVNNNSALSNVNSDI [RPT3] | 2.91 ± 0.1 | 2.77 ± 0.067 | 1.81 ± 0.087 | 2.15 ± 0.051 |
| KSLPLLITVMEKSPDPT [YCS4] | 1.91 ± 0.045 | 1.87 ± 0.043 | 1.92 ± 0.062 | 1.97 ± 0.034 |
| GGSSDTADKIRIHAKNF [GAL11] | 1.67 ± 0.066 | 1.86 ± 0.061 | 1.42 ± 0.072 | 1.68 ± 0.054 |
| RLDNLQDIKKAKRVENF [DSN1] | 1.52 ± 0.059 | 1.42 ± 0.039 | 2.56 ± 0.074 | 2.56 ± 0.048 |
| LQIAQLTLKHRQNKVQH [RPN10] | 2.26 ± 0.088 | 2.23 ± 0.071 | 1.74 ± 0.1 | 1.88 ± 0.065 |
| QKVQGESHIDSRNNTLN [SIR4] | 3.02 ± 0.057 | 3.1 ± 0.05 | 3.08 ± 0.057 | 3.01 ± 0.043 |
| VGFWKDDGDDEDLLECL [MTR3] | 2.67 ± 0.15 | 3.42 ± 0.19 | 3.5 ± 0.22 |  |
| LLAREVLRLRGALVDRT [RPS0A] | 2.17 ± 0.21 | 2.15 ± 0.094 | 1.78 ± 0.15 | 2.03 ± 0.15 |
| AFHLHCINKWIKTRDAC [HRT1] | 1.86 ± 0.089 | 2 ± 0.076 | 1.66 ± 0.14 | 2.19 ± 0.065 |
| TVTDDARIFEFPKTTVA [RPL18A] | 2.68 ± 0.056 | 2.7 ± 0.048 | 2.7 ± 0.061 | 2.42 ± 0.057 |
| AIGTKRYDSNSGGEREI [RPT2] | 3.28 ± 0.22 | 3.54 ± 0.11 | 3.39 ± 0.12 | 3.5 ± 0.13 |
| KADDDSVTIISAGNDKM [ASC1] | 3.24 ± 0.091 | 2.92 ± 0.11 | 3.16 ± 0.04 | 3.04 ± 0.058 |
| SEFLNVPFESLQGVTYP [YIL149C/MLP2] | 2.94 ± 0.086 | 2.56 ± 0.078 | 2.72 ± 0.091 | 2.96 ± 0.063 |
| FAGSNNQPHQSQTPSFN [YOR098C/NUP1] | 2.68 ± 0.046 | 2.91 ± 0.036 | 2.73 ± 0.036 | 3.01 ± 0.031 |
